This is an account of results in US20110172168A1 (MEDIGENE, published 2011).

The target of the test is T1, CEA-derived … (SEQ ID NO: 71)-HLA-A*0201 complex (biotin on the C-terminal biotinylation tag (enzymatic, BirA)).
T1 construct: also called soluble biotinylated HLA-A2-peptide complex; not shown: C-terminal biotinylation tag that replaces the transmembrane and cytoplasmic domains
As to the kind of experiment: Biacore SPR, pMHC immobilised. The method, then:
SPR measures changes in refractive index expressed in response units (RU) near a sensor surface within a small flow cell, a principle that can be used to detect receptor ligand interactions and to analyse their affinity and kinetic parameters. The probe flow cells were prepared by immobilising the pMHC complexes in flow cells via biotin-tag binding. The assay was then performed by passing soluble ILT over the surfaces of the different flow cells at a constant flow rate, measuring the SPR response in doing so.
For orientation: Surface plasmon resonance follows binding to a sensor surface in real time, without labels.

By Kd is commonly meant the concentration at which binding is half-saturated. A high value points to lower affinity. Usually koff stands for the rate constant with which the complex falls apart. A low value points to slow dissociation.

B1: SEQ ID NO 7 (receptor)
chain: MAGHLPKPTLWAEPGSVITMDQPVTLRCQGGQETQEYRLYREKKTAPWITRIPQELVKKGQFPIPSITWEHAGRYRCYYGSDTSQWSASSDPLELVVTGVYIKPTLSAQPSPVVNSGGNVTLQCDSQVAFDGFILCKEGEDEHPQCLNSQPHARGSSRAIFSVGPVSPSRRWWYRCYAYPIWTPYEWSLPSDLLELDVDG
For the molecule B1, the Kd was ≤ 1000 nM and the dissociation rate constant (koff) was ≤ 2 s⁻¹.

B2: SEQ ID NO 13 (receptor)
chain: MAGHLPKPTLWAEPGSVITMDQPVTLRCQGGQETQEYRLYREKKTAPWITRIPQELVKKGQFPIPSITWEHAGRYRCYYGSDTSQWSASSDPLELVVTGVYIKPTLSAQPSPVVNSGGNVTLQCDSQVAFDGFILCKEGEDEHPQCLNSQPHARGSSRAIFSVGPVSPSRRWWYRCYAYPAWTPYEWSLPSDLLELDVDG
Regarding B2, the Kd was ≤ 1000 nM and the koff was ≤ 2 s⁻¹.

B3: SEQ ID NO 9 (receptor)
chain: MAGHLPKPTLWAEPGSVITMDQPVTLRCQGGQETQEYRLYREKKTAPWITRIPQELVKKGQFPIPSITWEHAGRYRCYYGSDTSQWSASSDPLELVVTGVYIKPTLSAQPSPVVNSGGNVTLQCDSQVAFDGFILCKEGEDEHPQCLNSQPHARGSSRAIFSVGPVSPSRRWWYRCYAYMNWAPYEWSLPSDLLELDVDG
Turning to B3, the dissociation constant Kd was ≤ 1000 nM and the koff is ≤ 2 s⁻¹.

B4: SEQ ID NO 12 (receptor)
chain: MAGHLPKPTLWAEPGSVITMDQPVTLRCQGGQETQEYRLYREKKTAPWITRIPQELVKKGQFPIPSITWEHAGRYRCYYGSDTSQWSASSDPLELVVTGVYIKPTLSAQPSPVVNSGGNVTLQCDSQVAFDGFILCKEGEDEHPQCLNSQPHARGSSRAIFSVGPVSPSRRWWYRCYAYVSYWPYEWSLPSDLLELDVDG
Take B4: the Kd was ≤ 1000 nM and the off-rate (koff) was ≤ 2 s⁻¹.

B5: SEQ ID NO 11 (receptor)
chain: MAGHLPKPTLWAEPGSVITMDQPVTLRCQGGQETQEYRLYREKKTAPWITRIPQELVKKGQFPIPSITWEHAGRYRCYYGSDTSQWSASSDPLELVVTGVYIKPTLSAQPSPVVNSGGNVTLQCDSQVAFDGFILCKEGEDEHPQCLNSQPHARGSSRAIFSVGPVSPSRRWWYRCYAYVDWFPYEWSLPSDLLELDVDG
In the case of B5, the dissociation constant (Kd) was ≤ 1000 nM and the koff is ≤ 2 s⁻¹.

B6: SEQ ID NO 16 (receptor)
chain: MAQHLPKPTLWAEPGSVITMDQPVTLRCQGGQETQEYRLYREKKTAPWITRIPQELVKKGQFPIPSITWEHAGRYRCYYGSDTSQWSASSDPLELVVTGVYIKPTLSAQPSPVVNSGGNVTLQCDSQVTFDGFILCKEGEDEHPQCLNSQPHARGSSRAIFSVGPVSPSRRWWYRCYAYDSNSPYEWSLPSDLLELDVDG
In the case of B6, the Kd is ≤ 1000 nM and the koff is ≤ 2 s⁻¹.

B7: SEQ ID NO 10 (receptor)
chain: MAGHLPKPTLWAEPGSVITMDQPVTLRCQGGQETQEYRLYREKKTAPWITRIPQELVKKGQFPIPSITWEHAGRYRCYYGSDTSQWSASSDPLELVVTGVYIKPTLSAQPSPVVNSGGNVTLQCDSQVAFDGFILCKEGEDEHPQCLNSQPHARGSSRAIFSVGPVSPSRRWWYRCYAYTDYSPYEWSLPSDLLELDVDG
As to B7, the Kd is ≤ 1000 nM and the koff is ≤ 2 s⁻¹.

B8: SEQ ID NO 21 (receptor)
chain: MAGHLPKPTLWAEPGSVITMDQPVTLRCQGGQETQEYRLYREKKTAPWITRIPQELVKKGQFPIPSITWEHAGRYRCYYGSDTSQWSASSDPLELVVTGVYIKPTLSAQPSPVVNSGGNVTLQCDSQVAFDGFILCKEGEDEHPQCLNSQPHARGSSRAIFSVGPVSPSRRWWYRCYAYPWFTPYEWSLPSDLLELDVDG
In the case of B8, the Kd was ≤ 1000 nM and the off-rate constant (koff) was ≤ 2 s⁻¹.

B9: SEQ ID NO 20 (receptor)
chain: MAGHLPKPTLWAEPGSVITMDQPVTLRCQGGQETQEYRLYREKKTAPWITRIPQELVKKGQFPIPSITWEHAGRYRCYYGSDTSQWSASSDPLELVVTGVYIKPTLSAQPSPVVNSGGNVTLQCDSQVAFDGFILCKEGEDEHPQCLNSQPHARGSSRAIFSVGPVSPSRRWWYRCYAYPDFTPYEWSLPSDLLELDVDG
As for B9, the Kd is ≤ 1000 nM and the off-rate (koff) is ≤ 2 s⁻¹.

B10: SEQ ID NO 8 (receptor)
chain: MAGHLPKPTLWAEPGSVITMDQPVTLRCQGGQETQEYRLYREKKTAPWITRIPQELVKKGQFPIPSITWEHAGRYRCYYGSDTSQWSASSDPLELVVTGVYIKPTLSAQPSPVVNSGGNVTLQCDSQVAFDGFILCKEGEDEHPQCLNSQPHARGSSRAIFSVGPVSPSRRWWYRCYAYVAWAPYEWSLPSDLLELDVDG
In the case of B10, the equilibrium dissociation constant (Kd) is ≤ 1000 nM and the koff was ≤ 2 s⁻¹.

B11: SEQ ID NO 17 (receptor)
chain: MAQHLPKPTLWAEPGSVITMDQPVTLRCQGGQETQEYRLYREKKTAPWITRIPQELVKKGQFPIPSITWEHAGRYRCYYGSDTSQWSASSDPLELVVTGVYIKPTLSAQPSPVVNSGGNVTLQCDSQVAYDGFILCKEGEDEHPQCLNSQPHARGSSRAIFSVGPVSPSRRWWYRCYAYDSNSPYEWSLPSDLLELDVDG
Turning to B11, the Kd is ≤ 1000 nM and the koff is ≤ 2 s⁻¹.

B12: SEQ ID NO 15 (receptor)
chain: MAQHLPKPTLWAEPGSVITMDQPVTLRCQGGQETQEYRLYREKKTAPWITRIPQELVKKGQFPIPSITWEHAGRYRCYYGSDTSQWSASSDPLELVVTGVYIKPTLSAQPSPVVNSGGNVTLQCDSQVSFDGFILCKEGEDEHPQCLNSQPHARGSSRAIFSVGPVSPSRRWWYRCYAYDSNSPYEWSLPSDLLELDVDG
On to B12, for which the equilibrium dissociation constant (Kd) was ≤ 1000 nM and the dissociation rate constant (koff) is ≤ 2 s⁻¹.

B13: SEQ ID NO 18 (receptor)
chain: MAGHLPKPTLWAEPGSVITMDQPVTLRCQGGQETQEYRLYREKKTAPWITRIPQELVKKGQFPIPSITWEHAGRYRCYYGSDTSQWSASSDPLELVVTGVYIKPTLSAQPSPVVNSGGNVTLQCDSQVAFDGFILCKEGEDEHPQCLNSQPHARGSSRAIFSVGPVSPSRRWWYRCYAYMSWAPYEWSLPSDLLELDVDG
Regarding B13, the Kd was ≤ 1000 nM and the off-rate (koff) is ≤ 2 s⁻¹.

B14: SEQ ID NO 14 (receptor)
chain: MAQHLPKPTLWAEPGSVITMDQPVTLRCQGGQETQEYRLYREKKTAPWITRIPQELVKKGQFPIPSITWEHAGRYRCYYGSDTSQWSASSDPLELVVTGVYIKPTLSAQPSPVVNSGGNVTLQCDSQVDFDGFILCKEGEDEHPQCLNSQPHARGSSRAIFSVGPVSPSRRWWYRCYAYDSNSPYEWSLPSDLLELDVDG
Take B14: the Kd was ≤ 1000 nM and the off-rate constant (koff) was ≤ 2 s⁻¹.

B15: SEQ ID NO 23 (receptor)
chain: MAGHLPKPTLWAEPGSVITMDQPVTLRCQGGQETQEYRLYREKKTAPWITRIPQELVKKGQFPIPSITWEHAGRYRCYYGSDTSQWSASSDPLELVVTGVYIKPTLSAQPSPVVNSGGNVTLQCDSQVAFDGFILCKEGEDEHPQCLNSQPHARGSSRAIFSVGPVSPSRRWWYRCYAYVEWLPYEWSLPSDLLELDVDG
For the molecule B15, the dissociation constant (Kd) is ≤ 1000 nM and the koff was ≤ 2 s⁻¹.
